Test results: patent publication US11260100B2, “Compositions targeting the interaction domain between p27Kip1 and Brk and methods of use thereof to inhibit p27 Y phosphorylation and cdk4 activity” (The Research Foundation for the State University of New York, priority 2014, dated 2022)

Assays:
cdk4 = target: T1, cdk4 (Homo sapiens, UniProt P11802); assay: Immunoblot of pRBser780 as measure of active cdk4 (FIG. 10); format: cell-based; conditions: MCF7, drugs at IC50
T1 construct: added to or expressed in MCF7 breast cancer cells on day 2 post plating; endogenous in cells; host or cells: MCF7 (ALT-MCF7 tetracycline-inducible line)
T1 sequence (P11802 2-303 limits assumed): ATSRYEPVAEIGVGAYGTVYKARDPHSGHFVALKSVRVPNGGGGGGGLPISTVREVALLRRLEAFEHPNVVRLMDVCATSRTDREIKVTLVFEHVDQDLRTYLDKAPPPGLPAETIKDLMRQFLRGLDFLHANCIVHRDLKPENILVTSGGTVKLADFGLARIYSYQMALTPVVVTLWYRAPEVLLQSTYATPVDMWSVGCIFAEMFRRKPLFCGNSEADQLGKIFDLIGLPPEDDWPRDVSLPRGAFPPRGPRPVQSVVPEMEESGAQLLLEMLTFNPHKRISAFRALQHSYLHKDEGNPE
T1 sequence (P24385 whole entry partner): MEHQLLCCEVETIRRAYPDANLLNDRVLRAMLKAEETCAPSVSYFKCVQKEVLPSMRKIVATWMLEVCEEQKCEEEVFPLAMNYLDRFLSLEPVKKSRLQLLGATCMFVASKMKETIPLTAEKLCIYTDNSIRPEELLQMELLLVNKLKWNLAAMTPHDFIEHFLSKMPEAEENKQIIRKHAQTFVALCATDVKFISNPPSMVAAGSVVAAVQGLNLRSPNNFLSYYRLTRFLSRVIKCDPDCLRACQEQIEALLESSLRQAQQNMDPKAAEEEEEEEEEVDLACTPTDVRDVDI
Experimental: ALT, Palbociclib alone or in combination were added to or expressed in MCF7 breast cancer cells on day 2 post plating. […] ALT is expressed from an ALT-MCF7 tetracycline inducible cell line generated in the Blain lab. When tetracycline is added to the cell culture media, ALT is expressed in these cells. Vector: no tetracycline was added, so no ALT induction was detected. Drugs and media were replaced every two days. Cells were harvested every two days, lysed and used in immunoblot analysis.

MCF7 breast cancer cells = assay: Proliferation with ALT and Palbociclib at IC50 concentration (FIG. 9); format: cell-based, human
Experimental: FIGS. 9A-9B: AltBrk Synergizes with Palbociclib. ALT, Palbociclib, or Brk alone or in combination were added to or expressed in MCF7 breast cancer cells on day 2 post plating. Drugs were added at their IC50 concentration, based on previous results. ALT is expressed from an ALT-MCF7 tetracycline inducible cell line generated in the Blain lab. When tetracycline is added to the cell culture media, ALT is expressed in these cells. Vector: no tetracycline was added, so no ALT induction was detected. (FIG. 9A) Cells were harvested and counted every two days, as a measure of proliferation. Proliferation is plotted as a percentage relative to that seen in the DMSO treated control. Drugs and media were replaced every two days. (FIG. 9B) Viability was measured by trypan blue staining, and plotted relative to viability seen in the DMSO treated control.
Additional experiments were performed assessing activity of Brk in combination with Palbociclib. The data presented in FIGS. 9A and 9B reveal that Palbociclib and Brk inhibit proliferation for 2 days, and then resistance is observed (proliferation increases). Alt maintained arrest for roughly 10 days (50% inhibition of proliferation is detected). […] Alt-Brk/Palbociclib combination leads to a more durable cell cycle arrest. Mono therapy treated cells start to become resistant between day 8-10. […]

[1] = tested on: MCF-7 inducible ALT cells; assay: Mouse xenograft model, MCF7-ALT tumors; format: in vivo, NOD/SCID mice; conditions: day 17; start volume 200 mm3; Palbociclib 100 mg/kg daily gavage, doxycycline 0.1 mg/ml in drinking water
Experimental: FIG. 14: ALT slows tumor growth in animals, and ALT and PD dual treatment causes tumor regression. MCF-7 inducible ALT cells were injected into the 4th mammary gland of NOD/SCID mice. Tumors were allowed to develop to a volume of 200 mm3, before treatment. Vehicle: daily gavage with PBS. PD: Daily gavage of Palbociclib 100 mg/kg. Doxy: 0.1 mg/ml doxycycline added to the drinking water to allow continuous uptake and induction of ALT in the human cancer cells. Doxy+PD: Daily gavage of Palbociclib 100 mg/kg and 0.1 mg/ml doxycycline added to the drinking water. Vehicle treated animals rapidly progressed and by 17 days, tumor volumes were >3000 mm PD treatment slowed down tumor growth but by day 17, tumors were >2500. […] However, dual ALT and PD (doxy/PD) treatment, caused tumor regression by […] (e.g., from 200 mm3 down to 0-40 mm3), by day 5, which was durable up to day 19.
NP-ALT was added to cell media in the absence of fetal bovine serum for 6 hours. This media was removed and replaced with FBS+media, and cells were allowed to recover for 2 days, at which time, cell counts were determined. Counts were standardized to the proliferation seen in the NO FBS untreated control. • Expression in vivo. […] Tumor volume was monitored every other day using digital calipers. […] Doxy+PD: Daily gavage of Palbociclib 100 mg/kg and 0.1 mg/ml doxycycline added to the drinking water. • Quantitative RT-PCR. […]

cdk4 activity (pRBser780) (cdk4): inhibits cdk4
B1: Alt-Brk: alternative splice variant of Brk (SEQ ID NO: 17), 15 KD protein with SH3 domain, lacks kinase domain (protein, listed as Homo sapiens)
chain: MVSRDQAHLGPKYVGLWDFKSRTDEELSFRAGDVFHVARKEEQWWWATLLDEAGGAVAQGYVPHNYLAERETVESEPAGHAGCAALQDLAACRGPAAPERGGVLPQPARACELPQGPEPVPRPAAGRALPEARA
duration of proliferation inhibition / arrest (MCF7 breast cancer cells; drugs at IC50 concentration, replaced every two days): roughly 10 days
inhibition of proliferation (MCF7 breast cancer cells; during arrest): 50%
tumor volume [1]: ~1500 mm3
